Laboratory results taken from patent US9056892B2, “Retrograde transport peptide and use of same for delivery to central nervous system” (UNIVERSITY OF WASHINGTON, priority 2011, dated 2015).
No end group written: not given here. *: point of attachment. Biotin = O=C1N[C@H]2[C@H](CS[C@H]2CCCCC(=O)*)N1

Key:
[1] = Delivery to the CNS after intraperitoneal injection; format: in vivo
Description: The methods described above in Example 1 were modified to explore alternative modes of delivery to intramuscular injection.

[2] = test system: neurons in the human spinal cord; experiment: Labeling of fresh frozen human spinal cord sections by biotinylated 2404 complexed with quantum dot streptavidin; format: binding; conditions: overall conclusion
Experimental: FIGS. 6A-6D. Photomicrographs showing TAxI-Streptavidin labels neurons in the adult human spinal cord. Steptavidin conjugated quantum dots (Qdots) were complexed with biotinylated TAxI peptide and incubated on human spinal cord tissue with anti-NeuN and anti-ChAT antibodies. FIG. 6A. Confocal micrographs of ventral root motor neurons stained immunofluorescently for NueN (prominent cytoplasmic stain) and ChAT (lighter cytoplasmic staining) and TAxI-Qdots (primarily visible in the nuclear region). FIG. 6B. High magnification images of the ventral horn stained by immunofluorescence. FIG. 6C. High magnification images of the dorsal grey matter stained by immunofluorescence. FIG. 6D. Spinal cord tissue pre-blocked with 10-fold excess of TAxI-peptide prior to immunofluorescence for NeuN and ChAT and TAxI-QDots.
The ability to target motor neurons that transport peptide-protein complexes and biologically active proteins into the spinal cord provides tremendous potential for utilizing and delivering novel therapeutics for the CNS. This Example examined whether the 2404-peptide could bind to neural elements within the fresh frozen sections of the human spinal cord. […] 2404-steptavidin labeled cells were not prominent in dorsal aspects of the spinal cord.

[3] = test system: spinal cord motor neurons; experiment: Cre recombinase delivery into spinal cord after IM injection in Ai14 reporter mice (tdTomato expression); format: in vivo; conditions: 2.5 μg into gastrocnemius, one week post-injection
Experimental: To have utility as a therapeutic protein delivery system, the TAxI peptide must traffic cargo without rapid degradation or sequestration. To test for TAxI-mediated delivery of active enzyme to the spinal cord, we generated a series of Cre recombinase chimeras: wild-type Cre (Cre), Cre fused to the TAxI peptide (TAxI-Cre), and Cre fused to a mutated TAxI moiety (TAxI^Q-Cre). After purification, each recombinant Cre protein was injected (2.5 μg) into the gastrocnemius of the Ai14 reporter mice. In these mice, delivery of biologically active Cre recombinase results in td-Tomato expression due the excision of a floxed stop-codon.[27] One week post-injection, confocal microscopy was used to image spinal cords isolated after perfusion fixation. […] Furthermore, td-Tomato^+-cells projected into intermediate lamina of the spinal cord as well as into interneuron polls within multiple longitudinal segments, similar to efferent motor neurons (inset).
The coding sequence for Cre recombinase was obtained from the University of Washington Yeast Resource Center. The TAxI peptide sequence was added to the 5-prime end and both TAxI-Cre and wild-type Cre were subcloned into pRSETb (Invitrogen). To allow for expression and purifaction, each plasmid was transformed into BL21(D3)pLysS and grown in media supplemented with IPTG/X-gal (Promega). […]

| Molecule | delivery to the CNS [1] | binding and labeling of neurons in the human spinal cord [2] | tdTomato colocalization with NeuN and ChAT [3] | tdTomato expression in the lumbar spinal cord ([3]; confocal microscopy) |
| --- | --- | --- | --- | --- |
| ASGAQAR (GGCASGAQARCGG; disulfide (positions not given here); not fully specified (N-terminus, bridges); also: cyclic, mode not given here) [Clone 2404Q] | robust delivery to the CNS |  |  |  |
| QSQSQMR (Biotin-SACQSQSQMRCGGG; disulfide (positions not given here); not fully specified (bridges); also: cyclized, mode not given here) [Clone 2404] | robust delivery to the CNS | able to bind and label neurons in the human spinal cord specifically |  |  |
| TSTAPHLRLRLTSR [Clone 4042] | robust delivery to the CNS |  |  |  |
| Cre: wild-type Cre recombinase, recombinant 6×-his-tagged (protein, UniProt P06956 1-343, looked up, 6xHis tag, wild-type Cre recombinase, recombinant 6×-his-tagged) Recombinase cre: MSNLLTVHQNLPALPVDATSDEVRKNLMDMFRDRQAFSEHTWKMLLSVCRSWAAWCKLNNRKWFPAEPEDVRDYLLYLQARGLAVKTIQQHLGQLNMLHRRSGLPRPSDSNAVSLVMRRIRKENVDAGERAKQALAFERTDFDQVRSLMENSDRCQDIRNLAFLGIAYNTLLRIAEIARIRVKDISRTDGGRMLIHIGRTKTLVSTAGVEKALSLGVTKLVERWISVSGVADDPNNYLFCRVRKNGVAAPSATSQLSTRALEGIFEATHRLIYGAKDDSGQRYLAWSGHSARVGAARDMARAGVSIPEIMQAGGWTNVNIVMNYIRNLDSETGAMVRLLEDGD |  |  | did not induce tdTomato expression in either NeuN or ChAT-positive cells | small punctuate tdTomato^+-cells |
